From US20160046944, “APTAMER TO IL-17 AND USE THEREOF” (THE UNIVERSITY OF TOKYO, published 2016)
Changes are numbered by the printed parent chain.

T1: IL-17 (Homo sapiens, UniProt Q16552 Q16552:24-155)
T1 sequence: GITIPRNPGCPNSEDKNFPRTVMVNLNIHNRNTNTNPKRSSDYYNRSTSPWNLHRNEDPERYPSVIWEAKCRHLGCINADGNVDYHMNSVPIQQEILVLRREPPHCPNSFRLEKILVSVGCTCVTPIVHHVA

B1: aptamer No. 78 (mixed)
mixed: GGGUAGCCGGAGGAGTCAGTAAUCGGUACCC
modifications: 2'-OMe (M), 2'-F (F) as marked; uppercase DNA [2'-OMe: 1-5,7,8,10,13,14,21-31; 2'-F: 11,17,18; DNA: 9,16,20]
B2: aptamer No. 73 (mixed)
RNA: B1 mixed with T16U, T20U
modifications: 2'-OMe (M), 2'-F (F), PS (S) as marked; uppercase DNA [2'-OMe: 1-5,7,8,10,13,14,21-31; 2'-F: 11,16,17,18,20; PS: 6,15,19]
B3: aptamer No. 75 (mixed)
mixed: B1 mixed
modifications: 2'-OMe (M), 2'-F (F) as marked; uppercase DNA [2'-OMe: 1-5,7,8,10,13,14,21-26,28-31; 2'-F: 11,17,18,27]
B4: aptamer No. 87 (mixed)
mixed: B1 mixed with A21G
modifications: 2'-OMe (M), 2'-F (F), PS (S) as marked; uppercase DNA [2'-OMe: 1-5,7,8,10,11,13,14,17,22-31; 2'-F: 18; PS: 6,15,19; DNA: 9,16,20]
B5: aptamer No. 60 (mixed)
mixed: B1 mixed
modifications: 2'-OMe (M), 2'-F (F), PS (S) as marked; uppercase DNA [2'-OMe: 1,2,3,4,5,7,8,10,13,14,19,21,22,23,24,25,26,28,29,30,31; 2'-F: 11,17,18,27; PS: 6,15]
B6: aptamer No. 56 (mixed)
mixed: B1 mixed
modifications: 2'-OMe (M), 2'-F (F), PS (S) as marked; uppercase DNA [2'-OMe: 1,2,3,4,7,8,10,13,14,21,22,23,24,25,26,28; 2'-F: 11,17,18,27; PS: 6,15,19]
B7: aptamer No. 70 (mixed)
RNA: B1 mixed with T16U, T20U
modifications: 2'-OMe (M), 2'-F (F), PS (S) as marked; uppercase DNA [2'-OMe: 1-5,7,8,10,13,14,21-26,28-31; 2'-F: 11,16,17,18,20,27; PS: 6,15,19]
B8: aptamer No. 59 (mixed)
mixed: B1 mixed
modifications: 2'-OMe (M), 2'-F (F), PS (S) as marked; uppercase DNA [2'-OMe: 1,2,3,4,7,8,10,13,14,19,21,22,23,24,25,26,28,29,30,31; 2'-F: 11,17,18,27; PS: 6,15]
B9: aptamer No. 66 (mixed)
mixed: B1 mixed
modifications: 2'-OMe (M), 2'-F (F), PS (S) as marked; uppercase DNA [2'-OMe: 1-5,7,8,10,13,14,21-31; 2'-F: 11,17,18; PS: 6,15,19]
B10: aptamer No. 86 (mixed)
mixed: B1 mixed with A21G
modifications: 2'-OMe (M), 2'-F (F), PS (S) as marked; uppercase DNA [2'-OMe: 1-5,7,8,10,11,13,14,17,21-31; 2'-F: 18; PS: 6,15,19; DNA: 9,16,20]
B11: aptamer No. 54 (mixed)
RNA: B1 mixed with T16U, T20U
modifications: 2'-OMe (M), 2'-F (F), PS (S) as marked; uppercase DNA (U = deoxyuridine) [2'-OMe: 1,2,3,4,7,8,10,13,14,21,22,23,24,25,26,28; 2'-F: 11,17,18,27; PS: 6; dU: 16,20]
B12: aptamer No. 77 (mixed)
RNA: B1 mixed with T16U, T20U
modifications: 2'-OMe (M), 2'-F (F) as marked; uppercase DNA [2'-OMe: 1-5,7,8,10,13,14,21-26,29-31; 2'-F: 11,16,17,18,20,27; DNA: 28]
B13: aptamer No. 52 (mixed)
mixed: B1 mixed
modifications: 2'-OMe (M), 2'-F (F), PS (S) as marked; uppercase DNA [2'-OMe: 1-4,7,8,10,13,14,21-26,28; 2'-F: 11,17,18,27; PS: 6,15]
B14: aptamer No. 65 (mixed)
mixed: B1 mixed
modifications: 2'-OMe (M), 2'-F (F), PS (S) as marked; uppercase DNA [2'-OMe: 1-5,7,8,10,13,14,21-31; 2'-F: 11,17,18; PS: 6]
B15: aptamer No. 90 (mixed)
mixed: B1 mixed
modifications: 2'-OMe (M), 2'-F (F), PS (S) as marked; uppercase DNA [2'-OMe: 1-5,7,8,10,11,13,14,17,21,23-31; 2'-F: 18; PS: 6,15,19; DNA: 9,16,20]
B16: aptamer No. 94 (mixed)
RNA: B1 mixed with T16U, T20U
modifications: 2'-OMe (M), 2'-F (F), PS (S) as marked; uppercase DNA [2'-OMe: 1-5,7,8,10,11,13,14,23-26,28-31; 2'-F: 16-18,20,27; PS: 6,15,19; DNA: 9]
B17: aptamer No. 58 (mixed)
mixed: B1 mixed
modifications: 2'-OMe (M), 2'-F (F), PS (S) as marked; uppercase DNA [2'-OMe: 1,2,3,4,7,8,10,13,14,19,21,22,23,24,25,26,28; 2'-F: 11,17,18,27; PS: 6,12,15]
B18: aptamer No. 80 (mixed)
RNA: B1 mixed with T16U, T20U
modifications: 2'-OMe (M), 2'-F (F), PS (S) as marked; uppercase DNA [2'-OMe: 1-5,7,8,10,13,14,21-26,29-31; 2'-F: 11,16,17,18,20,27; PS: 6; DNA: 9,28]
B19: aptamer No. 82 (mixed)
mixed: B1 mixed
modifications: 2'-OMe (M), 2'-F (F), PS (S) as marked; uppercase DNA [2'-OMe: 1-5,7,8,10,11,13,14,21-31; 2'-F: 17,18; PS: 6,15,19; DNA: 9,16,20]
B20: aptamer No. 63 (mixed)
mixed: B1 mixed
modifications: 2'-OMe (M), 2'-F (F), PS (S) as marked; uppercase DNA [2'-OMe: 1,2,3,4,5,7,8,10,13,14,21,22,23,24,25,26,28,29,30,31; 2'-F: 11,17,18,27; PS: 6,15,19]
B21: aptamer No. 64 (mixed)
mixed: B1 mixed
modifications: 2'-OMe (M), 2'-F (F), PS (S) as marked; uppercase DNA [2'-OMe: 1,2,3,4,5,7,8,10,13,14,17,21,22,23,24,25,26,28,29,30,31; 2'-F: 11,18,27; PS: 6,15,19]
B22: aptamer No. 53 (mixed)
mixed: B1 mixed
modifications: 2'-OMe (M), 2'-F (F), PS (S) as marked; uppercase DNA [2'-OMe: 1,2,3,4,7,8,10,13,14,21,22,23,24,25,26,28; 2'-F: 11,17,18,27; PS: 6,19]
B23: aptamer No. 68 (mixed)
RNA: B1 mixed with T16U, T20U
modifications: 2'-OMe (M), 2'-F (F), PS (S) as marked; uppercase DNA [2'-OMe: 1-5,7,8,10,13,14,21-26,29-31; 2'-F: 11,16,17,18,20,27; PS: 6,15,19]
B24: aptamer No. 81 (mixed)
mixed: B1 mixed
modifications: 2'-OMe (M), 2'-F (F), PS (S) as marked; uppercase DNA [2'-OMe: 1-5,7,8,10,11,13,14,17,21-31; 2'-F: 18; PS: 6,15,19; DNA: 9,16,20]

These binders were tested against T1, IL-17 (assay: SPR; IL-17 150 nM, aptamer 12.5 or 50 nM). Details: chain copies: 2.
Description: Whether the synthesized aptamers inhibit the binding of IL-17 and IL-17 receptor was evaluated by the surface plasmon resonance method.
For the measurement, BIAcore T100 manufactured by GE Healthcare Bio Sciences was used. […] As an analyte, IL-17 (150 nM) and each aptamer (12.5 or 50 nM) shown by Table 3 were mixed, maintained for 15 min and after that the mixture was flown.
For B1, the binding signal was 23.3 % IL-17/IL-17R binding remaining.
In the case of B2, the binding signal is reported as 32 % IL-17/IL-17R binding remaining.
In the case of B3, the binding signal is reported as 21.6 % IL-17/IL-17R binding remaining.
For B4, the binding signal was 32.4 % IL-17/IL-17R binding remaining.
For B5, the binding signal was 31.9 % IL-17/IL-17R binding remaining.
For B6, the binding signal was 27 % IL-17/IL-17R binding remaining.
With B7 the binding signal was 35 % IL-17/IL-17R binding remaining.
For B8, the binding signal was 36.5 % IL-17/IL-17R binding remaining.
For B9, the binding signal was 28.7 % IL-17/IL-17R binding remaining.
B10 was tested, and the binding signal was 35.7 % IL-17/IL-17R binding remaining.
In the case of B11, the binding signal is reported as 25.1 % IL-17/IL-17R binding remaining.
With B12 the binding signal was 23.9 % IL-17/IL-17R binding remaining.
In the case of B13, the binding signal is reported as 27.6 % IL-17/IL-17R binding remaining.
For B14, the binding signal was 20.3 % IL-17/IL-17R binding remaining.
For B15, the binding signal was 41.2 % IL-17/IL-17R binding remaining.
With B16 the binding signal was 29.3 % IL-17/IL-17R binding remaining.
In the case of B17, the binding signal is reported as 33.7 % IL-17/IL-17R binding remaining.
B18 was tested, and the binding signal was 25.3 % IL-17/IL-17R binding remaining.
For B19, the binding signal was 5.28 % IL-17/IL-17R binding remaining.
With B20 the binding signal was 27.1 % IL-17/IL-17R binding remaining.
For B21, the binding signal was 29.3 % IL-17/IL-17R binding remaining.
In the case of B22, the binding signal is reported as 22.6 % IL-17/IL-17R binding remaining.
With B23 the binding signal was 37 % IL-17/IL-17R binding remaining.
In the case of B24, the binding signal is reported as 34.3 % IL-17/IL-17R binding remaining.
